Source: the supplement of paper PMC7877785
± gives the uncertainty stated by the source.

Assay: self-splicing fitness, log relative to wild type (ln ratio); higher = more splicing; Tetrahymena group I intron in knt gene, E. coli kanamycin selection, DiMSum; sequences stand for … in CUCUCU…GGAGGGAAAAGUUAUCAGGCAUGCACCUGGUAGCUAGUCUUUAAACCAAUAGAUUGCAUCGGUUUAAAAGGCAAGACCGUCAAAUUGCGGGAAAGGGGUCAACAGCCGUUCAGUACCAAGUCUCAGGGGAAACUUUGAGAUGGCCUUGCAAAGGGUAUGGUAAUAAGCUGACGGACAUGGUCCUAACCACGCAGCCAAGUCCUAAGUCAACAGAUCUUCUGUUGAUAUGGAUGCAGUUCACAGACUAAAUGUCGGUCGGGGAAGAUGUAUUCUUCUCAUAAGAUAUAGUCGGACCUCUCCUUAAUGGGAGCUAGCGGAUGAAGUGAUGCAACACUGGAGCCGCUGGGAACUAAUUUGUAUGCGAAAGUAUAUUGAUUAGUUUUGGAGUACUCGUGGUCG
Outline: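 A randomised library covering all eight P1ex-region intron nucleotides was built with the intron in the knt kanamycin-resistance gene on pET-22b(+) and held in E. coli BL21(DE3). Cells were grown overnight at 37°C or 30°C on LB agar, with or without 25 μg/mL kanamycin, plus 100 μg/mL carbenicillin, 50 μM IPTG and 0.2% rhamnose, and pooled colonies were amplicon-sequenced on an Illumina HiSeq 2500. DiMSum fitness is the error-weighted combination of wild-type-normalised replicate fold changes, kanamycin versus none.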

Sequence | self-splicing fitness (ln) (30 °C) | self-splicing fitness (ln) (37 °C)
CCCAAGCAAUAUUACGCGAU | -3.93 ± 0.21 | -2.5 ± 0.19
UAUCAGCAAUAUUACGUCGA | -1.16 ± 0.1 | 0.104 ± 0.12
GAGUAGCAAUAUUACGAGUA | -1.92 ± 0.16 | -1.28 ± 0.17
GCAUAGCAAUAUUACGGACC | -0.439 ± 0.1 | -0.576 ± 0.093
UUUCAGCAAUAUUACGUCAA | -1.19 ± 0.1 | -0.056 ± 0.097
UCGCAGCAAUAUUACGUGCU | -3.64 ± 0.16 | -2.15 ± 0.17
CAUGAGCAAUAUUACGUGCA | -1.37 ± 0.15 | -1.97 ± 0.24
CACUAGCAAUAUUACGCGGA | -3.19 ± 0.25 | -1.85 ± 0.18
UACGAGCAAUAUUACGAGGC | -4.33 ± 0.39 | -2.51 ± 0.25
GAGAAGCAAUAUUACGUGGA | -2.64 ± 0.17 | -1.81 ± 0.14
AUGUAGCAAUAUUACGUCUG | -1.94 ± 0.19 | -2.83 ± 0.26
UACUAGCAAUAUUACGCAGG | -1.77 ± 0.14 | -1.49 ± 0.15
CCCCAGCAAUAUUACGGCUA | -3.77 ± 0.16 | -2.34 ± 0.13
CCUAAGCAAUAUUACGUUUC | -2.52 ± 0.2 | -2.97 ± 0.27
UCGAAGCAAUAUUACGGAGU | -3.99 ± 0.28 | -1.03 ± 0.15
UGUCAGCAAUAUUACGGAUC | -1.89 ± 0.08 | -0.775 ± 0.075
GUGGAGCAAUAUUACGUAUC | -2.13 ± 0.2 | -0.331 ± 0.17
AUCGAGCAAUAUUACGUUAG | -3.73 ± 0.29 | -0.583 ± 0.21
CAAAAGCAAUAUUACGUUUG | -3.08 ± 0.14 | -2.55 ± 0.18
GCUUAGCAAUAUUACGACUU | 0.0581 ± 0.092 | 0.248 ± 0.1
GUCUAGCAAUAUUACGCGUC | -2.18 ± 0.099 | -0.0852 ± 0.1
GUCCAGCAAUAUUACGUACG | -1.58 ± 0.07 | -1.14 ± 0.1
GGUUAGCAAUAUUACGAUUG | -1.56 ± 0.19 | -1.1 ± 0.21
AUUCAGCAAUAUUACGGCAA | -0.94 ± 0.083 | 0.292 ± 0.1
GUACAGCAAUAUUACGGCUG | -3.82 ± 0.21 | -1.38 ± 0.14
AACCAGCAAUAUUACGGAUC | -2.84 ± 0.11 | -1.48 ± 0.1

Sequence | self-splicing fitness (ln) (30 °C) | self-splicing fitness (ln) (37 °C)
GCUAAGCAAUAUUACGAUCU | -0.886 ± 0.13 | 0.178 ± 0.14
GCCAAGCAAUAUUACGGAGG | -3.49 ± 0.19 | -1.08 ± 0.16
UGACAGCAAUAUUACGUGAU | -3.05 ± 0.11 | -0.351 ± 0.084
GCCUAGCAAUAUUACGCUAA | -1.28 ± 0.11 | 0.00419 ± 0.12
AAACAGCAAUAUUACGAGCA | -1.76 ± 0.091 | -1.09 ± 0.082
UAUCAGCAAUAUUACGGCGU | -0.864 ± 0.087 | -0.578 ± 0.087
UGAUAGCAAUAUUACGAGGU | -3.79 ± 0.24 | -3.13 ± 0.25
GGCAAGCAAUAUUACGCCAU | -2.4 ± 0.39 | -1.39 ± 0.29
CUAAAGCAAUAUUACGUUGG | -2.52 ± 0.12 | -0.891 ± 0.1
GUCCAGCAAUAUUACGCCGA | -1.78 ± 0.22 | -2.03 ± 0.14
AUCCAGCAAUAUUACGAAAG | -3.77 ± 0.18 | -2.76 ± 0.21
UACUAGCAAUAUUACGAAGG | -3.46 ± 0.29 | -1.04 ± 0.34
CAGCAGCAAUAUUACGACGG | -0.183 ± 0.064 | 0.472 ± 0.1
CCUCAGCAAUAUUACGGCGC | -3.57 ± 0.2 | -2.45 ± 0.3
UUUCAGCAAUAUUACGUAAG | -0.33 ± 0.087 | 0.394 ± 0.13
ACUAAGCAAUAUUACGUUGU | -3.58 ± 0.16 | -2.78 ± 0.18
AUAAAGCAAUAUUACGAAGC | -4.43 ± 0.46 | -0.791 ± 0.29
CUACAGCAAUAUUACGUAGC | -3.76 ± 0.26 | -2.54 ± 0.33
GUCGAGCAAUAUUACGUUUA | -2.37 ± 0.15 | -1.87 ± 0.15
CACAAGCAAUAUUACGCAGC | -3.48 ± 0.29 | –
GCGCAGCAAUAUUACGACAU | -0.277 ± 0.012 | 0.253 ± 0.032
CGAGAGCAAUAUUACGGCGU | -2.46 ± 0.28 | -1.2 ± 0.19
UUGUAGCAAUAUUACGUCUA | -0.856 ± 0.086 | -0.738 ± 0.11
GGUCAGCAAUAUUACGUCAG | -3.99 ± 0.4 | -3.23 ± 0.47
GCACAGCAAUAUUACGCUUC | -2.21 ± 0.094 | -1.3 ± 0.098
AGCGAGCAAUAUUACGUUGA | – | -2.11 ± 0.16

Sequence | self-splicing fitness (ln) (30 °C) | self-splicing fitness (ln) (37 °C)
CUAAAGCAAUAUUACGCCGG | -0.951 ± 0.16 | -0.177 ± 0.18
ACUGAGCAAUAUUACGCGUC | -4.21 ± 0.29 | -2.35 ± 0.21
GCAAAGCAAUAUUACGUCAU | -2.25 ± 0.096 | -1.37 ± 0.091
AGAUAGCAAUAUUACGUCGU | -1.21 ± 0.082 | -0.136 ± 0.099
UUGUAGCAAUAUUACGAGAG | -2.07 ± 0.3 | –
AGUAAGCAAUAUUACGCGAC | -3.46 ± 0.23 | -2.63 ± 0.25
ACUUAGCAAUAUUACGGAAC | -3.24 ± 0.19 | -1.07 ± 0.34
CAAGAGCAAUAUUACGCUAC | -2.4 ± 0.26 | -1.66 ± 0.38
CUGAAGCAAUAUUACGAAUA | -2.41 ± 0.48 | -2.22 ± 0.43
ACACAGCAAUAUUACGCCGC | -3.21 ± 0.34 | -1.68 ± 0.16
CUUAAGCAAUAUUACGUCAA | -3.38 ± 0.35 | -2.33 ± 0.21
GACAAGCAAUAUUACGUGGG | -4.48 ± 0.2 | -1.87 ± 0.12
GAAGAGCAAUAUUACGUCAU | -3.91 ± 0.48 | -2.13 ± 0.38
CGUUAGCAAUAUUACGAACA | -0.595 ± 0.16 | 0.0081 ± 0.16
ACAAAGCAAUAUUACGUAUA | -2.79 ± 0.2 | -2.09 ± 0.22
CAGGAGCAAUAUUACGCGGG | -0.771 ± 0.15 | -1.84 ± 0.14
GCUCAGCAAUAUUACGUACU | -0.953 ± 0.087 | -0.636 ± 0.086
GUUUAGCAAUAUUACGUAGU | -1.84 ± 0.14 | -0.706 ± 0.14
UUCAAGCAAUAUUACGAAGU | -3.76 ± 0.37 | -0.849 ± 0.23
ACCGAGCAAUAUUACGUGGA | -2.84 ± 0.15 | -2.99 ± 0.18
AAUCAGCAAUAUUACGGGUA | -0.368 ± 0.071 | 0.17 ± 0.081
CUUAAGCAAUAUUACGCAGU | -3.71 ± 0.46 | -2.56 ± 0.28
AGCCAGCAAUAUUACGUUAG | -3.07 ± 0.14 | -2.28 ± 0.16
AGACAGCAAUAUUACGCAGG | -3.5 ± 0.2 | -1.25 ± 0.16
UUGUAGCAAUAUUACGGGAG | – | -2.84 ± 0.4
